Columns and labels:
[1] = molecular target: T1, human CD26-derived 13 mer peptide 14 (human); test: peptide microarray
T1 peptide: NNILVFNAEYGNS
Method: (§1) The overnight incubation was followed by three washings with each of PBS buffer pH 7.5 and water. The microarrays were then scanned using ArrayWorx-Microarray Scanner.
(§2) The SPOT recognition software package ArrayPro was used for data analysis. The mean of signal intensities from 3 identical subarrays on each microarray image was used for data evaluation.

[2] = molecular target: T2, human CD26-derived 13 mer peptide 1 (human); test: peptide microarray
T2 peptide: YLKNTYRLKLYSL
Method: as §1, §2

[3] = molecular target: T3, human CD26-derived 13 mer peptide 53 (human); test: peptide microarray
T3 peptide: TQWVTWSPVGHKL
Method: as §1, §2

[4] = molecular target: T4, human CD26-derived 13 mer peptide 52 (human); test: peptide microarray
T4 peptide: NNTQWVTWSPVGH
Method: as §1, §2

[5] = molecular target: T5, human CD26-derived 13 mer peptide 90 (human); test: peptide microarray
T5 peptide: AQFNDTEVPLIEY
Method: as §1, §2

[6] = molecular target: T6, human CD26-derived 13 mer peptide 21 (human); test: peptide microarray
T6 peptide: VFLENSTFDEFGH
Method: as §1, §2

[7] = molecular target: T7, human CD26-derived 13 mer peptide 95 (human); test: peptide microarray
T7 peptide: IEYSFYSDESLQY
Method: as §1, §2

[8] = molecular target: T8, human CD26-derived 13 mer peptide 131 (human); test: peptide microarray
T8 peptide: QERISLQWLRRIQ
Method: as §1, §2

[9] = molecular target: T9, human CD26-derived 13 mer peptide 40 (human); test: peptide microarray
T9 peptide: HSYTASYDIYDLN
Method: as §1, §2

[10] = molecular target: T10, human CD26-derived 13 mer peptide 15 (human); test: peptide microarray
T10 peptide: ILVFNAEYGNSSV
Method: as §1, §2

[11] = molecular target: T11, human CD26-derived 13 mer peptide 84 (human); test: peptide microarray
T11 peptide: LWWSPNGTFLAYA
Method: as §1, §2

[12] = molecular target: T12, human CD26-derived 13 mer peptide 45 (human); test: peptide microarray
T12 peptide: DLNKRQLITEERI
Method: as §1, §2

[13] = molecular target: T13, human CD26-derived 13 mer peptide 108 (human); test: peptide microarray
T13 peptide: VNPTVKFFVVNTD
Method: as §1, §2

[14] = molecular target: T14, human CD26-derived 13 mer peptide 81 (human); test: peptide microarray
T14 peptide: FSAYSALWWSPNG
Method: as §1, §2

[15] = molecular target: T15, human CD26-derived 13 mer peptide 120 (human); test: peptide microarray
T15 peptide: QITAPASMLIGDH
Method: as §1, §2

[16] = molecular target: T16, human CD26-derived 13 mer peptide 111 (human); test: peptide microarray
T16 peptide: FFVVNTDSLSSVT
Method: as §1, §2

[17] = molecular target: T17, human CD26-derived 13 mer peptide 110 (human); test: peptide microarray
T17 peptide: VKFFVVNTDSLSS
Method: as §1, §2

[18] = molecular target: T18, human CD26-derived 13 mer peptide 9 (human); test: peptide microarray
T18 peptide: SDHEYLYKQENNI
Method: as §1, §2

[19] = molecular target: T19, human CD26-derived 13 mer peptide 77 (human); test: peptide microarray
T19 peptide: DWVYEEEVFSAYS
Method: as §1, §2

[20] = molecular target: T20, human CD26-derived 13 mer peptide 75 (human); test: peptide microarray
T20 peptide: NGITDWVYEEEVF
Method: as §1, §2

[21] = molecular target: T21, human CD26-derived 13 mer peptide 20 (human); test: peptide microarray
T21 peptide: SSVFLENSTFDEF
Method: as §1, §2

[22] = molecular target: T22, human CD26-derived 13 mer peptide 97 (human); test: peptide microarray
T22 peptide: FYSDESLQYPKTV
Method: as §1, §2

[23] = molecular target: T23, human CD26-derived 13 mer peptide 78 (human); test: peptide microarray
T23 construct: also called VYEEEVFSAYSAL
T23 peptide: VYEEEVFSAYSAL
Method: as §1, §2

[24] = molecular target: T24, human CD26-derived 13 mer peptide 56 (human); test: peptide microarray
T24 peptide: SPVGHKLAYVWNN
Method: as §1, §2

[25] = molecular target: T25, human CD26-derived 13 mer peptide 83 (human); test: peptide microarray
T25 peptide: SALWWSPNGTFLA
Method: as §1, §2

[26] = molecular target: T26, human CD26-derived 13 mer peptide 60 (human); test: peptide microarray
T26 peptide: YVWNNDIYVKIEP
Method: as §1, §2

[27] = molecular target: T27, human CD26-derived 13 mer peptide 114 (human); test: peptide microarray
T27 peptide: DSLSSVTNATSIQ
Method: as §1, §2

[28] = molecular target: T28, human CD26-derived 13 mer peptide 126 (human); test: peptide microarray
T28 peptide: HYLCDVTWATQER
Method: as §1, §2

[29] = molecular target: T29, human CD26-derived 13 mer peptide 18 (human); test: peptide microarray
T29 peptide: EYGNSSVFLENST
Method: as §1, §2

[30] = molecular target: T30, human CD26-derived 13 mer peptide 133 (human); test: peptide microarray
T30 peptide: SLQWLRRIQNYSV
Method: as §1, §2

[31] = molecular target: T31, human CD26-derived 13 mer peptide 74 (human); test: peptide microarray
T31 peptide: IYNGITDWVYEEE
Method: as §1, §2

[32] = molecular target: T32, human CD26-derived 13 mer peptide 23 (human); test: peptide microarray
T32 peptide: NSTFDEFGHSIND
Method: as §1, §2

[33] = molecular target: T33, human CD26-derived 13 mer peptide 72 (human); test: peptide microarray
T33 peptide: KEDIIYNGITDWV
Method: as §1, §2

[34] = molecular target: T34, human CD26-derived 13 mer peptide 79 (human); test: peptide microarray
T34 peptide: EEEVFSAYSALWW
Method: as §1, §2

[35] = molecular target: T35, human CD26-derived 13 mer peptide 94 (human); test: peptide microarray
T35 peptide: PLIEYSFYSDESL
Method: as §1, §2

[36] = molecular target: T36, human CD26-derived 13 mer peptide 42 (human); test: peptide microarray
T36 peptide: ASYDIYDLNKRQL
Method: as §1, §2

[37] = molecular target: T37, human CD26-derived 13 mer peptide 48 (human); test: peptide microarray
T37 peptide: LITEERIPNNTQW
Method: as §1, §2

[38] = molecular target: T38, human CD26-derived 13 mer peptide 36 (human); test: peptide microarray
T38 peptide: YNYVKQWRHSYTA
Method: as §1, §2

[39] = molecular target: T39, human CD26-derived 13 mer peptide 106 (human); test: peptide microarray
T39 peptide: KAGAVNPTVKFFV
Method: as §1, §2

[40] = molecular target: T40, human CD26-derived 13 mer peptide 82 (human); test: peptide microarray
T40 peptide: AYSALWWSPNGTF
Method: as §1, §2

[41] = molecular target: T41, Purified recombinant human CD26 (rhDipeptidyl peptidase IV), R&D Systems CAT #1180-SE (human, UniProt P27487 29-766); test: SPR (Biacore)
T41 construct: Bought recombinant protein; also called hu-CD26; soluble human CD26
T41 sequence (P27487 29-766 limits assumed): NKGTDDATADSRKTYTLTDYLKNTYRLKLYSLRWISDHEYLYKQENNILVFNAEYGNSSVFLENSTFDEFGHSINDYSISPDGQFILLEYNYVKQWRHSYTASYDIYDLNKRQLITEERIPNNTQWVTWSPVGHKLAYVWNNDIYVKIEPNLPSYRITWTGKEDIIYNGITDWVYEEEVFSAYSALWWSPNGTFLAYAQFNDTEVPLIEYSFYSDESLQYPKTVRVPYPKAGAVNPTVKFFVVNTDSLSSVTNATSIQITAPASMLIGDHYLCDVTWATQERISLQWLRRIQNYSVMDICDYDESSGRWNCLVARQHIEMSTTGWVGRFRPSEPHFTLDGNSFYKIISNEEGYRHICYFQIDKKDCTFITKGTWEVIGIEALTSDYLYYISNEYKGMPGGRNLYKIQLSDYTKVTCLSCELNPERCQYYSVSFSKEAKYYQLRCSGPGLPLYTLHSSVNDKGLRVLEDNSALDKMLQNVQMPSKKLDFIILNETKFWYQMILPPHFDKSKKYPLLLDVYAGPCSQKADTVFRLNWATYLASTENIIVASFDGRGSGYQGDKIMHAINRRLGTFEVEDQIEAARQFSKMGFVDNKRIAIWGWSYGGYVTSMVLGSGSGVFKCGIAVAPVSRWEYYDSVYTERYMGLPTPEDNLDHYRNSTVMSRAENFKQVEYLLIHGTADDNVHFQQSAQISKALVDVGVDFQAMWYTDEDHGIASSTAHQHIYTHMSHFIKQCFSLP

B1: rhuMAb 411 (antibody, human IgG1, kappa, V domains shown)
VH: EVQLVESGAGVKQPGGTLRLTCTASGFSLTTYGVHWVRQAPGKGLEWVGVIWGDGRTDYDAAFMSRVTISKDTSKSTVYLQMNSLRAEDTAVYYCMRNRHDWFDYWGQGTTVTVSS
VL: DILLTQSPSSLSATPGERATITCRASQGIRNNLNWYQQKPGQAPRLLIYYSSNLQSGVPSRFSGSGSGTDFTLTISRLQPEDVAAYYCQQSIKLPFTFGSGTKVEIKR
notes: also called X411
[1]
  Mean Signal Value: 0.00962
[2]
  Mean Signal Value: 3.5
[3]
  Mean Signal Value: 0.00481
[4]
  Mean Signal Value: 0.12
[5]
  Mean Signal Value: 0
[6]
  Mean Signal Value: 0.197
[7]
  Mean Signal Value: 6.14
[8]
  Mean Signal Value: 5.25
[9]
  Mean Signal Value: 32.2
[10]
  Mean Signal Value: 0
[11]
  Mean Signal Value: 17.2
[12]
  Mean Signal Value: 0
[13]
  Mean Signal Value: 1.33
[14]
  Mean Signal Value: 35.4
[15]
  Mean Signal Value: 0.0337
[16]
  Mean Signal Value: 0
[17]
  Mean Signal Value: 0.024
[18]
  Mean Signal Value: 0.0673
[19]
  Mean Signal Value: 13.7
[20]
  Mean Signal Value: 9.38
[21]
  Mean Signal Value: 0.0577
[22]
  Mean Signal Value: 0.0144
[23]
  Mean Signal Value: 7.86
[24]
  Mean Signal Value: 11.7
[25]
  Mean Signal Value: 3.64
[26]
  Mean Signal Value: 0.0769
[27]
  Mean Signal Value: 0.00481
[28]
  Mean Signal Value: 0.0337
[29]
  Mean Signal Value: 0
[30]
  Mean Signal Value: 6.51
[31]
  Mean Signal Value: 0
[32]
  Mean Signal Value: 0.00481
[33]
  Mean Signal Value: 10.1
[34]
  Mean Signal Value: 96.4
[35]
  Mean Signal Value: 0.0433
[36]
  Mean Signal Value: 0
[37]
  Mean Signal Value: 12.1
[38]
  Mean Signal Value: 28.2
[39]
  Mean Signal Value: 0.245
[40]
  Mean Signal Value: 67.8
[41]
  Kd: 0.244 nM
  koff: 6.63e-05 s⁻¹
  kon: 272000 M⁻¹ s⁻¹

Reference: patent publication US20070105771A1 (Y S THERAPEUTICS, published 2007)
